The values below come from US20240352136A1 (Hoffmann-La Roche, published 2024).

For the experiment, the target named is T1, human CD25 (alpha subunit of the interleukin-2 receptor, IL2RA) (human, UniProt P01589 22-272).
T1 sequence: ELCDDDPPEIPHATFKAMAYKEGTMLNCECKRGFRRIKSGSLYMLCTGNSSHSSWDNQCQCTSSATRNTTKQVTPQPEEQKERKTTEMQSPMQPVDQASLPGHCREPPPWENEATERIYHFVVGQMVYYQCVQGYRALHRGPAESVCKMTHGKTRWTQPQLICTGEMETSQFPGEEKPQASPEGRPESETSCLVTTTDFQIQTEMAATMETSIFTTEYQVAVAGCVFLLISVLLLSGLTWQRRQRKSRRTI
Kind of experiment: cell-based or functional assay.

B1: CD25 Mab (RG6292) (antibody, human IgG1, kappa, V domains shown)
VH: QVQLVQSGAEVKKPGSSVKVSCKASGGTFSSLAISWVRQAPGQGLEWMGGIIPIFGTANYAQKFQGRVTITADESTSTAYMELSSLRSEDTAVYYCARGGSVSGTLVDFDIWGQGTMVTVSS
VL: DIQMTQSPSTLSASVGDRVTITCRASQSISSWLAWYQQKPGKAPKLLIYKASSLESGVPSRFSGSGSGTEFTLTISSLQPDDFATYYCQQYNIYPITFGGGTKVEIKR
modifications: afucosylated Fc glycan (produced using the GlymaxX technology)
For B1, the “ADCC EC50, AML-22 target cells with activated NK cells, flow cytometry readout, 17 h” value is roughly 0.03 µg/mL; the “ADCC EC50, EOL-1 target cells with activated NK cells, flow cytometry readout, 17 h” value was roughly 0.03 µg/mL; the “ADCC EC50, EOL-1 target cells, CytoTox-Glo luminescence readout” value is 0.035 µg/mL; the “ADCC EC50, EOL-1 target cells, flow cytometry readout” value is 0.03 µg/mL.
